Substrate in the data set: Nc1ncnc2c1ccn2[C@H]1C[C@H](O)[C@@H](CO)O1
The data set is described as follows: TP_TRANSPORTER: uptake (pH 5.4) in Xenopus laevis oocytes. It is filed as functional, cell-based, Oocyte.

B1: Solute carrier family 22 member 1 (Rattus norvegicus) (protein)
chain: MPTVDDVLEQVGEFGWFQKQAFLLLCLISASLAPIYVGIVFLGFTPGHYCQNPGVAELSQRCGWSQAEELNYTVPGLGPSDEASFLSQCMRYEVDWNQSTLDCVDPLSSLVANRSQLPLGPCEHGWVYDTPGSSIVTEFNLVCGDAWKVDLFQSCVNLGFFLGSLVVGYIADRFGRKLCLLVTTLVTSVSGVLTAVAPDYTSMLLFRLLQGMVSKGSWVSGYTLITEFVGSGYRRTTAILYQMAFTVGLVGLAGVAYAIPDWRWLQLAVSLPTFLFLLYYWFVPESPRWLLSQKRTTRAVRIMEQIAQKNGKVPPADLKMLCLEEDASEKRSPSFADLFRTPNLRKHTVILMYLWFSCAVLYQGLIMHVGATGANLYLDFFYSSLVEFPAAFIILVTIDRIGRIYPIAASNLVTGAACLLMIFIPHELHWLNVTLACLGRMGATIVLQMVCLVNAELYPTFIRNLGMMVCSALCDLGGIFTPFMVFRLMEVWQALPLILFGVLGLTAGAMTLLLPETKGVALPETIEEAENLGRRKSKAKENTIYLQVQTGKSSST
The Km is the concentration of substrate that gives half-maximal velocity. As for B1, the Km was found to be 23 µM.

B2: Solute carrier family 22 member 2 (Rattus norvegicus) (protein)
chain: MSTVDDILEHIGEFHLFQKQTFFLLALLSGAFTPIYVGIVFLGFTPDHHCWSPGAAKLSQRCGWSQAEELNYTVPGLGPSDEASFLSQCMRYEVDWNQSTLDCVDPLSSLAADRNQLPLGPCEHGWVYNTPGSSIVTEFNLVCAHSWMLDLFQSVVNVGFFIGAMMIGYLADRFGRKFCLLVTILINAISGALMAISPNYAWMLVFRFLQGLVSKAGWLIGYILITEFVGLGYRRMVGICYQIAFTVGLLILAGVAYVIPNWRWLQFAVTLPNFCFLLYFWCIPESPRWLISQNKIVKAMKIIKHIAKKNGKSVPVSLQNLTPDEDAGKKLNPSFLDLVRTPQIRKHTLILMYNWFTSSVLYQGLIMHMGLAGDNIYLDFFYSALVEFPAAFIIILTIDRVGRRYPWAVSNMVAGAACLASVFIPDDLQWLKITIACLGRMGITMAYEMVCLVNAELYPTYIRNLGVLVCSSMCDIGGIITPFLVYRLTDIWMEFPLVVFAVVGLVAGALVLLLPETKGKALPETIEDAENMQRPRKKKEKRIYLQVKQADRPLS
On to B2, for which the Michaelis-Menten constant (Km) was 212 µM.

The values above are taken from ChEMBL document CHEMBL2074236, “Renal organic cation and nucleoside transport” (Biochem Pharmacol, 2002).
